According to patent US20250277196A1, “EPSPS MUTANTS AND METHOD OF ITS USES” (CROPEDIT BIOTECHNOLOGY INC., priority 2021, published 2025):

Experiments:
[1] = test system: E. coli lacking EPSPS; experiment: Resistance test of wheat EPSPS mutant and comparison with wild type (FIG. 4); format: cell-based; settings: 0.2 mM glyphosate
Description: The gene was synthesized according to the V403A mutant sequence information (SEQ ID NO:32) of the EPSPS gene on chromosome 7 of the wheat A genome and inserted into the vector pKED2 to obtain the wheat (Triticum vulgare) EPSPS mutant expression vector TaVA containing the V403A mutation. The A403 site of TaVA was mutated back to V by PCR, and a TaWt vector expressing the EPSPS wild-type gene on chromosome 7 of wheat A genome was obtained.
(§1) a) PCR system: According to the primer and template mixed PCR system corresponding to the target vector in the above table, the forward primer was 1.25 μl, the reverse primer was 1.25 μl, the template plasmid was 2 μl, the Q5 PCR master mix was 12.5 μl, and ddH2O was […].
b) PCR reaction conditions were as follows: the annealing temperature was set according to the annealing temperature corresponding to the target carrier in the above table.
(§2) c) Took out 5 μl of the obtained PCR product and added it to the loading buffer for agarose gel electrophoresis. A band with a size of about 4.5 kb was considered successful.
d) Used NEB's KLD enzyme mixture to remove the template and then connected the PCR product. The connection system was 5 μl KLD buffer, 1 μl KLD MIX, 1 μl PCR product, and ddH2O 3 μl. After ligating at room temperature for 5 min, transformed it into E. coli.
e) The ligation product was transformed into Dh5a competent E. coli lacking EPSPS. […]

[2] = test system: E. coli lacking EPSPS; experiment: Glyphosate resistance comparison among rice EPSPS mutants: growth of transformed E. coli on M9 medium with different glyphosate concentrations; format: cell-based, Escherichia coli
Method: as §1
b) PCR reaction conditions were as following: the annealing temperature was set according to the annealing temperature corresponding to the target carrier in the above table.
as §2
d) Used NEB's KLD enzyme mixture to remove the template and connected the PCR product. The connection system was 5 μl KLD buffer, 1 μl KLD MIX, 1 μl PCR product, and ddH2O 3 μl. After ligating at room temperature for 5 min, transformed it into E. coli.
e) The ligation product was transformed into Dh5a competent E. coli lacking EPSPS. After resuscitation, the cells were washed twice with M9 medium, and then the washed cells were spread on M9 medium and cultured for 48 h. Sequenced the grown single colony (Tsingke Biological Technology Co., Ltd.), and selected the correct mutant to save for future use.
OsWt represents the wild type rice EPSPS(SEQ ID NO:2). […] OsGA represents the mutated rice EPSPS with mutation G172A. (SEQ ID NO:7) OsPS represents the mutated rice EPSPS with mutation P177S. (SEQ ID NO:8) OsGAPS represents the mutated rice EPSPS with mutation G172A and P177S. (SEQ ID NO:9) OsGAVA represents the mutated rice EPSPS with mutation G172A and V403A(SEQ ID NO:4). OsPSVA represents the mutated rice EPSPS with mutation P177S and V403A(SEQ ID NO:5). OsGPV represents the mutated rice EPSPS with mutation G172A, P177S and V403A(SEQ ID NO:6). OsTIPS represents the mutated rice EPSPS with mutation T173I and P177S. (SEQ ID NO: 35). OsTIPT represents the mutated rice EPSPS with mutation T173I and P177T. (SEQ ID NO:36). OsTIPSVA represents the mutated rice EPSPS with mutation T173I, P177S and V403A. (SEQ ID NO:37). OsTIPTVA represents the mutated rice EPSPS with mutation T173I, P177T and V403A. (SEQ ID NO:38). CP4 represents the wild type EPSPS from Agrobacterium tumefaciens. (SEQ ID NO:39)
Each product obtained from the above steps were transformed into E. coli lacking EPSPS. By detecting the growth of the transformed Escherichia coli on M9 medium containing different glyphosate concentrations (0 mM, 0.5 mM, 2 mM, 4 mM, 5 mM, 25 mM, 75 mM, 100 mM), the 1 mM glyphosate here was equivalent to […] glyphosate acid, the glyphosate resistance of rice EPSPS mutants was verified.

[3] = test system: T1 generation transgenic rice; experiment: Glyphosate resistance of T1 generation transgenic rice seedlings (FIG. 10); format: in vivo; settings: 100 ppm glyphosate aqueous solution (Roundup), cultivated 10 days; wild-type rice control significantly inhibited and died
Description: The rice seed used in this example is RICE KENG XIANG DA008-169, which is publicly available.
Nucleic acid sequence encoding OsGPV mutants (comprising G172A, P177S and V403A) (SEQ ID NO:6) were inserted into the plant expression vector according to the conventional methods to obtain the pk510 vector expressing the OsGPV gene. (see FIG. 9)
1) The transgenic vector pk510 was introduced into Agrobacterium EHA105 to obtain recombinant Agrobacterium.
2) One to five days before the transformation experiment, recombinant Agrobacterium was inoculated on YEB solid medium containing 50 mg/L kanamycin and 15 mg/L rifampicin. The medium was sealed in the dish with 3M tape; kept at temperature at 28° C. in an inverted dish orientation and cultured it in dark for one to five days.
3) The bacteria was scraped at the “Z”-shaped tail with the inoculation ring, and gently suspended in […] NB liquid medium containing 2 mg/L 2,4-dichlorophenoxyacetic acid to make the concentration of the bacteria liquid reach approximately O.D. 600=0.1, and then reserve the make Agrobacterium infection solution.
4) After removing the rice seed coat, the rice seed was placed in a triangular flask, washed 3 times with sterile water. 75% alcohol was added to immerse the seeds, shaken gently for 1 min, and the alcohol discarded. […]

Row | Molecule | growth state compared with TaWt [1] | glyphosate resistance compared with CP4 EPSPS ([2]; 100 mM glyphosate medium, FIG. 2) | glyphosate concentration of the medium on which the strain can grow ([2]; M9 medium, tested 0, 0.5, 2, 4, 5, 25, 75, 100 mM glyphosate, FIG. 2, FIG. 3) [mM] | growth of transgenic rice seedlings in glyphosate solution [3]
1 | TaVA (protein, This sequence is synthesized in lab.) DNA: MAGAEEVVLQPIREISGAVQLPGSKSLSNRILLLSALSEGTTVVDNLLNSEDVHYMLEALEALGLSVEADKVAKRAVVVGCGGRFPVEKDAKEEVKLFLGNAGTAMRPLTAAVVAAGGNATYVLDGVPRMRERPIGDLVVGLQQLGADVDCFLGTNCPPVRINGKGGLPGGKVKLSGSISSQYLSSLLMAAPLALEDVEIEIIDKLISVPYVEMTLKLMEHFGVTAEHSDSWDRFYIKGGQKYKSPGNAYVEGDASSASYFLAGAAITGGTVTVEGCGTTSLQGDVKFAEVLEMMGAKVTWTDTSVTVTGPPRQPFGRKHLKAVDVNMNKMPDAAMTLAVVALFADGPTAIRDVASWRVKETERMVAIRTELTKLGATVEEGPDYCIITPPEKLNITAIDTYDDHRMAMAFSLAACAEVPVTIRDPGCTRKTFPNYFDVLSTFVKN | significantly higher than that of TaWt |  |  | 
2 | OsGPV: mutated rice EPSPS with mutation G172A, P177S and V403A (SEQ ID NO:6) (protein, This sequence is synthesized in lab.) MAAKAEEIVLQPIREISGAVQLPGSKSLSNRILLLSALSEGTTVVDNLLNSEDVHYMLEALKALGLSVEADKVAKRAVVVGCGGKFPVEKDAKEEVQLFLGNAATAMRSLTAAVTAAGGNATYVLDGVPRMRERPIGDLVVGLKQLGADVDCFLGTECPPVRVKGIGGLPGGKVKLSGSISSQYLSALLMAAPLALGDVEIEIIDKLISIPYVEMTLRLMERFGVKAEHSDSWDRFYIKGGQKYKSPGNAYVEGDASSASYFLAGAAITGGTVTVQGCGTTSLQGDVKFAEVLEMMGAKVTWTDTSVTVTGPPREPYGKKHLKAVDVNMNKMPDAAMTLAVVALFADGPTAIRDVASWRVKETERMVAIRTELTKLGASVEEGPDYCIITPPEKLNITAIDTYDDHRMAMAFSLAACADVPVTIRDPGCTRKTFPNYFDVLSTFVRN |  | comparable | 100 | not significantly affected
